{
  "source": "paper PMC6823436",
  "about": "“Phase separation of Polo-like kinase 4 by autoactivation and clustering drives centriole biogenesis” (Nature Communications, 2019)",
  "biological_target": "the molecule itself",
  "experiment": "SEC; Superdex 75 Increase 10/300 GL; 20 mM Tris-HCl pH 7.5, 500 mM NaCl, 5% glycerol, 0.5 mM TCEP; 0.5 mL/min; BSA run for comparison; dimeric state in solution",
  "data": [
    {"protein": "CPB CP (581–808), cryptic polo-box of Plk4 with the CP mutations (domain or fragment, human, UniProt O00444 581-808, looked up, PDB 6N46 is the His6-tagged form of the same limits; PDB 4N9J is the wild-type apo-CPB; also called CBP CP; source: E. coli Rosetta, purified (HisTrap, SEC, TEV cleavage, HisTrap and MBPTrap, SEC)) GYQNRTLRSITSPLVAHRLKPIRQKTKKAVVSILDSEEVCVELVKEYASQEYVKEVLQISSDGNTITIYYPNGGRGFPLADRPPSPTDNISRYSFDNLPEKYWRKYQYASRFVQLVREKEPKIEYFDRYAKCILMENSPGADFEVWFYDGVKIHKTEDFIQVIEKTGKSYTLKSESEVNSLKEEIKMYMDHANEGHRICLALESIISEEERKTRSAPFFPIIIGRKPG", "values": [
      {"measurement": "binding result", "value": "binds"}
    ]}
  ]
}
